T1: double mutant GPVI-Fc (S125P, S126Q, G128R, Q133K, T136S, T171D, A172L, H174V) (human, UniProt Q9HCN6 21-269)
T1 construct: also called GPVI double mutant; not shown: human IgG1 Fc domain
T1 chain: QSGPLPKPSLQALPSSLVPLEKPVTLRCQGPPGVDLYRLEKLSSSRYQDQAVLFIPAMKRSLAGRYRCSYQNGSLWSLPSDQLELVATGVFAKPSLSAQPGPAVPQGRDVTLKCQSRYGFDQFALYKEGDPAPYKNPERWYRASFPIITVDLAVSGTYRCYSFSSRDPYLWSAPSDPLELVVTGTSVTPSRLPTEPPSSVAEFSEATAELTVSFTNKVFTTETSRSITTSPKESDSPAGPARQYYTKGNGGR

B1: wild-type soluble GPVI-Fc (Fc fusion)
chain: QSGPLPKPSLQALPSSLVPLEKPVTLRCQGPPGVDLYRLEKLSSSRYQDQAVLFIPAMKRSLAGRYRCSYQNGSLWSLPSDQLELVATGVFAKPSLSAQPGPAVSSGGDVTLQCQTRYGFDQFALYKEGDPAPYKNPERWYRASFPIITVTAAHSGTYRCYSFSSRDPYLWSAPSDPLELVVTGTSVTPSRLPTEPPSSVAEFSEATAELTVSFTNKVFTTETSRSITTSPKESDSPAGPARQYYTKGNGGR
notes: The gene encodes the ectodomain from the first methionine to asparagine 269; also called wild-type GPVI-Fc; not shown: human IgG1 Fc domain

How the values were obtained:
[1] = target: B1; assay: ELISA: GPVI-Fc coated at 20 µg/mL, increasing ACT017, peroxidase-coupled anti-human IgG, absorbance at 450 nm
Protocol: (§1) Microtitration plates were coated with GPVI-Fc in PBS (20 μg/mL, 100 μL per well) overnight at 4° C. Nonspecific binding sites were saturated with 200 μL of 1% BSA in PBS for 30 min. The plates were then incubated with increasing concentrations of ACT017 preparations (100 μL in PBS containing 0.1% BSA and 0.1% Tween 20) for 30 min. After 3 washing rounds plates were incubated with a peroxidase-coupled secondary human anti-IgG for 30 min. Finally, 100 μL of the substrate solution were added to each well for 4 min, and the colorimetric reaction stopped by 25 μL NaOH 3 M.

[2] = target: T1, double mutant GPVI-Fc (S125P, S126Q, …); assay: ELISA: double mutant GPVI-Fc coated at 20 µg/mL, increasing ACT017, peroxidase-coupled anti-human IgG, absorbance at 450 nm
Protocol: as §1

[3] = target: T2, Collagen; assay: ELISA: collagen coated at 20 µg/mL, increasing GPVI-Fc, peroxidase-coupled anti-human Fc, absorbance at 450 nm
T2 construct: Horm collagen (Nycomed) is named only for the platelet aggregation assays; The collagen used in the ELISA is not specified
Protocol: Microtitration plates were coated with Collagen in PBS (20 μg/mL, 100 μL per well) overnight at 4° C.
Nonspecific binding sites were saturated with 200 μL of 1% BSA in PBS for 30 min. The plates were then incubated with increasing concentrations of wild-type or double mutant GPVI-Fc preparations (100 μL in PBS containing 0.1% BSA and 0.1% Tween 20) for 30 min. After 3 washing rounds plates were incubated with a peroxidase-coupled secondary human anti-Fc(ab) for 30 min. Finally, 100 μL of the substrate solution were added to each well for 4 min, and the colorimetric reaction stopped by 25 μL NaOH 3 M.

Row | Binder | EC50 (read off the curve) [1] [mg/L] | binding result [2] | EC50 (read off the curve) [3] [mg/L]
1 | ACT017 antibody (Fab, V domains shown, Humanized anti-human GPVI; also called the Fab of the invention) VH: QVQLVQSGAEVKKPGASVKVSCKASGYTFTSYNMHWVRQAPGQGLEWMGGIYPGNGDTSYNQKFQGRVTMTRDTSTSTVYMELSSLRSEDTAVYYCARGTVVGDWYFDVWGQGTLVTVSS VL: DIQMTQSPSSLSASVGDRVTITCRSSQSLENSNGNTYLNWYQQKPGKAPKLLIYRVSNRFSGVPSRFSGSGSGTDFTFTISSLQPEDIATYYCLQLTHVPWTFGQGTKVEITR | ~0.03 | no binding (tested: about 830 ng/ml) | –
2 | B1 | – | – | ~0.6

— patent US20190367608A1 (ACTICOR BIOTECH, published 2019)
